{"source": "paper PMC8774185", "about": "“Open-Bundle Structure as the Unfolding Intermediate of Cytochrome c′ Revealed by Small Angle Neutron Scattering” (Biomolecules, 2022)", "key": {"[1]": {"molecular_target": "the molecule itself", "test": "small-angle neutron scattering (SANS); 5.5 mg/mL Cyt c′ in D2O, 20 mM phosphate buffer, pD 6.4; KWS-1 beam line; Rg and curve compared with those of the crystal dimer; MW ratio from I(0)/C against the pD 1.7 sample; dimer to monomers"}, "[2]": {"molecular_target": "the molecule itself", "test": "small-angle neutron scattering (SANS); 5.3 mg/mL Cyt c′ in D2O, 20 mM phosphate buffer, pD 9.6; KWS-1 beam line; Rg and curve compared with those of the crystal dimer; MW ratio from I(0)/C against the pD 1.7 sample; dimer to monomers"}}, "note": "Values joined by “and” are separate entries in the source; they are usually repeats but may differ in a detail not shown here. Equal values may be shown once."}
{"protein": "Cytochrome c′ from Alcaligenes xylosoxidans NCIMB 11015 (natural protein, UniProt P00138 1-127, looked up, heme prosthetic group embedded in the C-terminal region, Cytochrome c′ (c-type cytochrome, four-α-helix bundle) of Alcaligenes xylosoxidans NCIMB 11015; helices A(Ala3-Lys31), B(Asp37-Phe59), C(Ala76-Asp98), D(Asp103-Arg124); His120 axial ligand; crystal structures PDB 4WGZ and 4WGY are of the same protein; also called Cyt c′; Cyt c') QFAKPEDAVKYRQSALTLMASHFGRMTPVVKGQAPYDAAQIKANVEVLKTLSALPWAAFGPGTEGGDARPEIWSDAASFKQKQQAFQDNIVKLSAAADAGDLDKLRAAFGDVGASCKACHDAYRKKK", "values": [{"measurement": "stoichiometry N", "setting": "[1]", "result": "2.1 and 2"}, {"measurement": "stoichiometry N", "setting": "[2]", "result": "1.9 and 1.8"}]}
